# ± gives the standard deviation of the averaged measurements.
# Test system: ATP
# Test: switch fluorescence ratio, 500 uM ATP over buffer (Cy3 cluster intensity, sum of 5 cycles each) (fold (ratio)); higher = stronger signal-on switching upon ATP binding; sequences stand for … in TCGTCGGCAGCGTCAGATGTGTATAAGAGACAGTTTTTTTTTTTTTTTTTTTTTTTTT…TC
# Settings: aptamer strand: ATP DNA aptamer (quencher-CACCTGGGGGAGTATTGCGGAGGAAGG + anchor), 100 nM annealed; ATP concentration: 500 uM
# Outline: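 The fluorescence ratio divides summed target-cycle Cy3 intensity by summed buffer-cycle Cy3 intensity for each cluster and is averaged per switch-domain sequence. Cy3-labelled switching-strand clusters on a modified Illumina MiSeq flow-cell were annealed to 100 nM quencher-labelled ATP aptamer, then imaged in selection buffer and again after 15 min with 500 uM ATP at 22 °C. Five such cycles were run, with NaOH stripping and re-annealing between them, and clusters outside 100-1000 RFU were excluded.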
# 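Also: ATP exposure 15 min at 22 °C before imaging.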
row,Sequence,switch fluorescence ratio
1,CATGTTTGCC,1.02 ± 0.015
2,ACTTGTTCGT,1.006 ± 0.0075
3,ATCGGACTTG,0.977 ± 0.033
4,TAGATGTTGA,0.973 ± 0.036
5,ATTTCCCGAT,0.979 ± 0.012
6,AATTTGGGTG,1.04 ± 0.049
7,TACCTAGTGC,1.035 ± 0.0016
8,GCTTGATCCA,1.01 ± 0.018
9,CAGGTGCTGG,1.167 ± 0.0018
10,GAGGAAGGAA,1.04 ± 0.062
11,TGGGTTTGAT,1.01 ± 0.041
12,TGTCTTAGGA,0.999 ± 0.019
13,AGGTTAGGTG,1.42 ± 0.34
14,ACATCAATTC,1.1 ± 0.014
15,TAGAATCCGG,0.979 ± 0.011
16,TAAAAGAAGA,0.962 ± 0.016
17,AGGATCTACT,1.01 ± 0.021
18,AAGGGCTTCC,1.98 ± 0.038
19,CTGGTGTATT,1.017 ± 0.0046
20,AAAAAGTTTG,1 ± 0.04
21,CCTAATGCAG,1.11 ± 0.049
22,TTTGCATATA,1.09 ± 0.11
23,AGGTAGGTAA,1.03 ± 0.054
24,TTATCAGTGG,0.9707 ± 0.002
25,GCAGGAGGGG,0.965 ± 0.074

row,Sequence,switch fluorescence ratio
1,GGGAACGATC,1.003 ± 0.0083
2,GCTAGTTATG,1.04 ± 0.1
3,ACATGAGCGT,0.996 ± 0.016
4,GACTTAAGGC,1.005 ± 0.0011
5,TTGCTTCAAT,0.983 ± 0.045
6,TTTAGTACGC,1.05 ± 0.0076
7,TTGTATTAGG,0.968 ± 0.05
8,ACTGGCAGTT,1.01 ± 0.037
9,GTGGATGCGG,0.962 ± 0.038
10,TGAGCTAAAT,1.18 ± 0.31
11,TTCATTAATC,0.97104 ± 0.00025
12,CGTTAGTTCT,1 ± 0.029
13,TGGGCATATA,0.996 ± 0.012
14,CATGGGAAGG,0.997 ± 0.034
15,CGTTTACGGA,0.998 ± 0.026
16,TAATCTTTTT,1.01 ± 0.021
17,CCAGTGATGG,1 ± 0.042
18,TTATGAATAG,0.99 ± 0.011
19,CGGGCTGGGT,0.987 ± 0.057
20,TTTGGAAGTT,0.9817 ± 0.0035
21,GAGGTGCAGG,0.9932 ± 0.008
22,TCGTTTGAGT,0.997 ± 0.021
23,CGGACCAGCG,0.965 ± 0.0086
24,CATGGGGATT,1.017 ± 0.0057
25,AACGGGTTAC,1.14 ± 0.019

row,Sequence,switch fluorescence ratio
1,GGGGTAGGAG,1.03 ± 0.093
2,ATTGAGGAGG,1.02 ± 0.023
3,TTTTAATTTA,1.03 ± 0.043
4,TTTTGATGCT,0.998 ± 0.057
5,GCTGGCTCGT,1.01 ± 0.013
6,GTTGGAGTTA,0.976 ± 0.023
7,CACGCATTTT,1.12 ± 0.089
8,GGGTAATTAT,1.01 ± 0.036
9,CGGGGTACGT,0.985 ± 0.027
10,TGTTAATAGT,0.981 ± 0.015
11,TTTTAGTTAG,1.03 ± 0.058
12,CTGTTATTTT,0.974 ± 0.03
13,ATAGATTAGT,0.996 ± 0.035
14,ACTCTTATAA,1.048 ± 0.0059
15,TTGTGAGTGT,1.01 ± 0.034
16,TTATTCGCAA,4.457 ± 0.044
17,ATCGGATTTT,1.17 ± 0.22
18,CCGTTTGGGA,0.998 ± 0.032
19,GATTTCGATG,1.01 ± 0.013
20,TAAAGAAAAG,0.988 ± 0.011
21,ATACTTATTG,0.99646 ± 0.0008
22,TTCCTGAGGG,1.11 ± 0.058
23,ATGTAAATGT,1.041 ± 0.0077
24,TTTAGCGTGG,1.05 ± 0.05
25,CTGGGGCGTT,0.983 ± 0.0034

row,Sequence,switch fluorescence ratio
1,TATTCTTTGA,1.02 ± 0.03
2,CTGGGGGCCG,0.979 ± 0.054
3,AATTTTTTTC,0.989 ± 0.015
4,AGGTGTAGCA,1.02 ± 0.051
5,AATGGGGGGC,1 ± 0.041
6,CGTTAAGAAA,0.994 ± 0.016
7,TCGGAATCTG,1 ± 0.1
8,GGTACTCGGG,0.961 ± 0.013
9,CAGAAGGGAG,0.98 ± 0.01
10,TGGGACACTG,0.972 ± 0.035
11,CGAGTTAAGC,0.965 ± 0.02
12,TATCGAAATT,0.981 ± 0.021
13,GGATGGGGGG,0.986 ± 0.016
14,GATCTTAACG,0.9912 ± 0.0096
15,TGATTCTAGC,0.972 ± 0.011
16,GATCGGGGTA,1.014 ± 0.0071
17,GGGGCACTGT,1.01 ± 0.013
18,TCGACATTAT,1.034 ± 0.0055
19,CGGGGCACGT,1.16 ± 0.23
20,ACATCGTCAT,1.01 ± 0.02
21,TCGGGGGGCA,0.992 ± 0.028
22,GAATGAGAGA,1 ± 0.037
23,AAGTTATCTG,1.03 ± 0.027
24,ACGTAGGCGG,1.02 ± 0.062
25,TTGTTATGTT,0.971 ± 0.03
